According to article PMC3907034:

Target: HIV-1 P7L-S40A-Gag, full-length (HIV-1)
Assay: two-hybrid; Matchmaker GAL4 system, S. cerevisiae Y190, quantitative liquid beta-galactosidase assay; units normalized to P7L with Alix (panel B) or WT Gag with Alix (panel C)

## full-length Alix (from UniProt Q8WUM4 1-868) (natural protein)
  fold increase of binding (beta-galactosidase units) against P7L-Gag with Alix: 7 fold
